Measurements from patent US20160324751A1, “METHOD OF PREPARING RECOMBINANT HUMAN TYROSINASE” (Conopco, Inc., d/b/a UNILEVER, priority 2012, published 2016).

Assays:
[1] = molecular target: T1, human tyrosinase prepared using truncated gene (TMRL) (Homo sapiens, UniProt P14679); experiment: In vitro tyrosine to melanin assay; type: biochemical; details: TMRL (60 μg) + 50 mM Arbutin
T1 construct: The truncated version is defined as a gene whose corresponding protein extends from the N-terminus to the amino acid 472 or lower; made in house; host or cells: HIGHFIVE (BTI-TN-5B1-4) insect cells, baculovirus (PFASTBAC)
T1 sequence (P14679 19-472 limits assumed): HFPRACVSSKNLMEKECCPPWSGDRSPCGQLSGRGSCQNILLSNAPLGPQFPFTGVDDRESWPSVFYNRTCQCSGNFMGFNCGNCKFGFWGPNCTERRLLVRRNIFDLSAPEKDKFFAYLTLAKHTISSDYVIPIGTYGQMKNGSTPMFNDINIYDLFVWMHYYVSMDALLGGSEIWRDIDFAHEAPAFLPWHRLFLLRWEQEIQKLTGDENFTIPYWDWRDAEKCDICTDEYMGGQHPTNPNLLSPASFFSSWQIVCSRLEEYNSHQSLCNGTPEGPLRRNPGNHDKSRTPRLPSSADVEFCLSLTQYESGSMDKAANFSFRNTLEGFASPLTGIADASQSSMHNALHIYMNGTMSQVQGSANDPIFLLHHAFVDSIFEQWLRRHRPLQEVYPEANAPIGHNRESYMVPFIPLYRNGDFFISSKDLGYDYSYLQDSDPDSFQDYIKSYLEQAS
Description: At the completion of the reaction, samples were photographed and data analyzed further in the same manner described under the DOPA+MBTH section.

human tyrosinase [2] = experiment: DOPA (2 mM) oxidation assay in absence of MBTH, OD450 nm; type: biochemical; details: 15 μg protein equivalent, OD450 nm after 90 min converted into ratio
Description: DOPA oxidation activity was examined by a slightly modified version of the procedure earlier reported by Harris & Winder [Eur. J. Biochem. (1991) 198: 317-326], excluding Perchloric acid and Dimethylformamide but capturing a picture on reaction progress. Separately, in vitro melanin formation assay was carried out for 7 hrs. at 37° C., using a substrate mix (of 0.5 mM L-Tyrosine+15 μM L-DOPA) in 50 mM phosphate buffer (pH 6.8) and using indicated amounts of protein. This assay covers both tyrosine hydroxylation and DOPA oxidation activities together in the same run. Human melanocytic lysate served as the reference positive control and absence of any protein served as the no enzyme negative control (uncatalyzed background reaction) for these reactions. Assay volumes of 0.1 ml were adequate, indicating scalability for enhanced high throughput screening purposes.
When the activity of 15 μg protein equivalent recombinant human tyrosinase samples were tested in DOPA (2 mM) assay (in absence of MBTH), OD450 nm values reached after 90 min. (indication of extent of oxidation) were converted into a ratio form and are tabulated below: […]

[3] = test system: insect cells expressing FL rHuTyrase; experiment: Visual examination of cell pellet prior to cell lysis; type: cell-based; details: prior to cell lysis by sonication; control uninfected cells pale
Description: FIG. 2: Visual examination (prior to cell lysis by sonication) of the samples of cell pellet obtained in the case of insect cells expressing Full (FL) rHuTyrase (Example 1) as compared to the control uninfected cells (Example A).

human tyrosinase [4] = experiment: DOPA+MBTH solution phase tyrosinase enzymatic assay; type: biochemical; details: gray scale intensity difference to Example D, relative to HML (Example B); 0 = transparent, close to 1 = activity comparable to HML
Description: Standard western blot procedure was used to examine the extent of tyrosinase protein expression as well as determine optimal time point to harvest the cells. For scale up work, it was decided to use the insect cell line known as BTI-TN-5B1-4, sold under the tradename HIGHFIVE™ further. 100 ml scale growth of “infected” HIGHFIVE™ cells were carried out and both the spent media as well as the cell pellets were collected. The latter was lyzed by regular sonication method and the activity of the tyrosinase enzyme in various samples were tested using the typical DOPA oxidation and DOPA+MBTH coupling assays.
DOPA oxidation activity was examined by a slightly modified version of the procedure earlier reported by Harris & Winder [Eur. J. Biochem. (1991) 198: 317-326], excluding Perchloric acid and Dimethylformamide but capturing a picture on reaction progress. […]
Example E: Growth media supernatant in which above cells were grown Reaction samples were photographed and converted into gray scale intensity (GSI) by computer software digitization. Numerical differences (di) were calculated between GSI of any sample and that of reference control background sample (Example D). dmax was the maximal difference, that between HML (positive reference control, Example B) and the reference control background sample (Example D).

## OC[C@H]1O[C@@H](Oc2ccc(O)cc2)[C@H](O)[C@@H](O)[C@@H]1O [Arbutin]
[1]
  Scale ratio di/dmax (tyrosinase activity of TMRL with inhibitor): 0.00

B1: Example G: Commercially sourced E. coli (bacteria) expressed recombinant human tyrosinase (protein, UniProt P14679 19-529, looked up)
Tyrosinase: HFPRACVSSKNLMEKECCPPWSGDRSPCGQLSGRGSCQNILLSNAPLGPQFPFTGVDDRESWPSVFYNRTCQCSGNFMGFNCGNCKFGFWGPNCTERRLLVRRNIFDLSAPEKDKFFAYLTLAKHTISSDYVIPIGTYGQMKNGSTPMFNDINIYDLFVWMHYYVSMDALLGGSEIWRDIDFAHEAPAFLPWHRLFLLRWEQEIQKLTGDENFTIPYWDWRDAEKCDICTDEYMGGQHPTNPNLLSPASFFSSWQIVCSRLEEYNSHQSLCNGTPEGPLRRNPGNHDKSRTPRLPSSADVEFCLSLTQYESGSMDKAANFSFRNTLEGFASPLTGIADASQSSMHNALHIYMNGTMSQVQGSANDPIFLLHHAFVDSIFEQWLRRHRPLQEVYPEANAPIGHNRESYMVPFIPLYRNGDFFISSKDLGYDYSYLQDSDPDSFQDYIKSYLEQASRIWSWLLGAAMVGAVLTALLAGLVSLLCRHKRKQLPEEKQPLLMEKEDYHSLYQSHL
modifications: E. coli expressed
notes: Commercially sourced E. coli (bacteria) expressed recombinant human tyrosinase
Human tyrosinase [2]
  Scale ratio di/dmax (Extent of DOPA oxidation): 0.04

B2: Example 1: Full length recombinant human tyrosinase, synthetic gene codon optimized for baculovirus expression in insect cells (protein, UniProt P14679 1-529, looked up)
chain: MLLAVLYCLLWSFQTSAGHFPRACVSSKNLMEKECCPPWSGDRSPCGQLSGRGSCQNILLSNAPLGPQFPFTGVDDRESWPSVFYNRTCQCSGNFMGFNCGNCKFGFWGPNCTERRLLVRRNIFDLSAPEKDKFFAYLTLAKHTISSDYVIPIGTYGQMKNGSTPMFNDINIYDLFVWMHYYVSMDALLGGSEIWRDIDFAHEAPAFLPWHRLFLLRWEQEIQKLTGDENFTIPYWDWRDAEKCDICTDEYMGGQHPTNPNLLSPASFFSSWQIVCSRLEEYNSHQSLCNGTPEGPLRRNPGNHDKSRTPRLPSSADVEFCLSLTQYESGSMDKAANFSFRNTLEGFASPLTGIADASQSSMHNALHIYMNGTMSQVQGSANDPIFLLHHAFVDSIFEQWLRRHRPLQEVYPEANAPIGHNRESYMVPFIPLYRNGDFFISSKDLGYDYSYLQDSDPDSFQDYIKSYLEQASRIWSWLLGAAMVGAVLTALLAGLVSLLCRHKRKQLPEEKQPLLMEKEDYHSLYQSHL
modifications: full-length recombinant, baculovirus-expressed
notes: Full length recombinant human tyrosinase, synthetic gene codon optimized for baculovirus expression in insect cells
[3]
  Colour of cell pellet (melanin like pigment within the cells): black

B3: Example 6: FL lysate supernatant, 15 μg protein equivalent (protein, UniProt P14679 1-529, looked up)
chain: B2 chain
modifications: full-length insect cell lysate
notes: FL lysate supernatant, 15 μg protein equivalent
Human tyrosinase [2]
  Scale ratio di/dmax (Extent of DOPA oxidation): 0.90

B4: Example 3: Sonication lysate supernatant of HIGHFIVE cells expressing FL tyrosinase (protein, UniProt P14679 1-529, looked up)
chain: B2 chain
modifications: full-length insect cell lysate
Human tyrosinase [4]
  Scale ratio di/dmax (DOPA + MBTH Reaction): 0.85
